Test results: US20260069689A1 (Regeneron, published 2026)
Positions count from the first letter of the chain named.

B1: mAb15156 (antibody, V domains shown)
VH: QLQLQESGPGLVKSSETLSLTCTVSASITGSTYYWGWIRQPPGKGLEWIGSIYYSGTTYYKASLKSRVTISVDTSKNQFSLKLTSVTVADTAVYYCVSHLLGNYHKYGMDVWGQGTTVTVSS
VL: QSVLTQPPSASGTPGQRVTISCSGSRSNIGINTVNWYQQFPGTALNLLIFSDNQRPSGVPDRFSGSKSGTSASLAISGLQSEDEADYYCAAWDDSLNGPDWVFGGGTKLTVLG
B2: mAb15150 (antibody, V domains shown)
VH: EVQLVETGGGLIQPGGSLRLSCAAPGFIVSSNYMSWVRQAPGKGLEWVSLLYPGGSTYYADSVKGRFTISRDNSKNTLYLQMNSLRADDTAVYYCARVLPIVEDHFDYWGQGTLVTVSS
VL: DIQLTQSPSFLSASVGDRVTITCRASQGMSSYLAWYQKKPGKAPKLLIYGATILQSGVPSRFSGSGSGTEFTLTISSLQPEDFATYYCQQLNSDPLYMYTFGQGTKLEIKR
B3: mAb15150 (antibody, V domains shown)
VH: B2 VH
VL: B2 VL
B4: mAb15151 (antibody, V domains shown)
VH: QVQLVESGGGVVQPGRSLRLSCAASGFVFNSYGMHWVRQAPGKGLEWVAVLWYEGSKNYYADSVKGRFTISRDNSKNTLYLQMNSLRAEDTAVYYCARHGSGSFFGYYLDYWGQGTLVTVSS
VL: DIQMTQSPSSLSASVGDRVTITCRASHNINDFLNWYQQKPGKAPRLLIYAASSLQSGVPSRFSGSGSGTDFTLTISSLQPEDFATYYCQESYTTPPTFGQGTKLEIKR
B5: mAb15151 (antibody, V domains shown)
VH: B4 VH
VL: B4 VL
B6: mAb15161 (antibody, V domains shown)
VH: EVQLVESGGGLVQPGGSLRLSCAASGFTFSSYEMNWVRQAPGKGLEWVSYISSSGSILYYADSVKGRFTASRDNAKNSLYLQMNSLRAEDTGVYYCARREYQLLRPFEFWGQGTLVTVSS
VL: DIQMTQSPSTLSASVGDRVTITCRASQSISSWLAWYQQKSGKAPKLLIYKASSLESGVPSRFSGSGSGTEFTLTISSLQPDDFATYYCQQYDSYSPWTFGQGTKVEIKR
B7: mAb15160 (antibody, V domains shown)
VH: EVQLVESGGGLVQPGGSLRLSCSASGFTFSRYAMYWVRQAPGKGLEYVSAISSDGGSTYDADSVKGRFTISRANSKNTLYLQMSSLRAEDTAVYYCVKGLRELLYYYYGMDVWGQGTTVTVSS
VL: DIQMTQSPSSLSASVGDRVTITCRAGQSISSFLNWYQQKPGKAPKLLIYAASSLQSGVPSRFSGSGSGTDFTLTISSLQPEDFATYYCQQSYITPFTFGPGTKVDIKR
B8: mAb15157 (antibody, V domains shown)
VH: EVQLVESGGALVQPGGSLRLSCAASGFPFTIYAMTWVRQAPGKGLEWVSVITGSGDSTYYADSVKGRFTISRDNSKNTLYLQMNSLRAEDTAVYYCVKTGEGFFYYYYGMDVWGQGTTVTVSS
VL: QSVLTQPPSVSAAPGQKVTISCSGSSSNIGNSYISWYQQLPGTAPKLLIYVNNKRPSGIPDRFSGSKSGTSATLGITGLQTGDEADYYCGTWDSSLSAGVFGSGTKVTVLG
B9: mAb15159 (antibody, V domains shown)
VH: EVQLVESGGGLVQPGGSLRLSCAASGITVSSNYMTWVRQAPGKGLEWVSLIYSGGSTFYADSVRGRFTISRDNSKNTLYLQMNSLRAEDTAVYYCARDLVVYGMDVWGQGTTVTVSS
VL: DIQLTQSPSSLSASVGDRVTITCRASQGISSYLAWYQQKPGKAPKLLIYAASTLQSGVPSRFSGSGSGTDFTLTISSLQPEDFATYYCQHLNSDPHTFGQGTKLEIKR
B10: mAb15170 (antibody, V domains shown)
VH: B9 VH with S25T, T35S, R64K, D72H, N83S, V101D, Y102F
VL: B9 VL with S31N, A84G, H90Q, P95S, H96P, L104V
B11: mAb15162 (antibody, V domains shown)
VH: EVQLVETGGGLIQPGGSLRLSCAASEFIVSRNYMSWVRQAPGKGLEWVSLIYSGGSTYYADSVKGRFTISRDNSKNILYLQMNSLRAEDTAVYYCARDRGGISDYWGQGTLVTVSS
VL: DIQMTQSPSSLSASVGDRVTITCQASQDINKYLNWFQQKPGKAPKLLIYDASNLETGVPSRFSGSGSGTDFTFTISSLQPEDIATYYCQQYDNLPRTFGQGTKLEIKR
B12: mAb15158 (antibody, V domains shown)
VH: EVQLVESGGGLVQPGGSLRLSCAASGFSFSSNWMSWVRQAPGKGLEWVGNINQDGSEKYYVDSVEGRFTISRDNAKKSLYLQMNSLRAEDTAVYYCARDLGVLWFGDFVDWGQGALVTVSS
VL: DIQMTQSPSSLSASVGDRVTITCRASQAISNSLAWYQQKPGKAPKLLLYAASTLESGVPSRFSGSGSGTDYTLTISSLQPEDFATYYCLQYYGSPRTFGQGTKVEIKR
B13: mAb15164 (antibody, V domains shown)
VH: EVQLVESGGGLVQPGGSLRLSCAASGFAVSSNYMTWVRQAPGKGLEWVATIYSGDSTYYADSVKGRFTISRHNSKNTLSLQMNSLRADDTAIYYCARLSGVLSGTYNGAFDIWGQGTMVTVSS
VL: QSALTQPASVSGSPGQSITISCTGTSSDFGNYNIVSWYQQHPGQAPKVMIYEGNKRPSGVSNRFSGSKSGHTASLTISGLQAEDEADYYCSSYAGSSTWVFGGGTKLTVLG
B14: mAb15166 (antibody, V domains shown)
VH: EVQLVESGGGLVQPGGSLRLSCAASGFTVTSNYMSWVRQAPGKGLEWVSAIYSGESTYYADSVKGRFTISRDSSKNTLYLQMNSLRVEDTAVYYCASIHDYSNYVGGFDPWGQGTLVTVSS
VL: B13 VL with T25P, N31S, I34L, Q44K, V48L, N54T, H71N
B15: mAb15165 (antibody, V domains shown)
VH: EVQLVESGGGLVQPGGSLRLSCAASGFTVSSNYMSWVRQAPGKGLEWVSAIYSGDSTYYADSVKGRFTISKDNSKNTLYLQMNSLRGEDTAVYYCARLGGALQAYDGAFDYWGQGTLATVSS
VL: B13 VL with N31S, I34L, Q44K, V48L, N62I, H71N
B16: mAb15163 (antibody, V domains shown)
VH: EVQLVETGGGLIQPGESLRLSCAASGFIVSTNYMNWVRQAPGKGLEWVSVIYRGGSTYYADSVKGRFTISRDNSKNTLFLQMNSLRAEDTAVYYCARGHEDFDYDTPASGAFDIWGQGTMVTVSS
VL: QSALTQPPSASGSPGQSVTISCTGTSSDVGGHNYVSWYQQHPGKAPKVMIYEVSKRPSGVPDRFSGSKSGNTASLTVSGLQAEDEADYYCSSYAGSNKFVFGTGTKVTVLG

Tests used:
[1] = biological target: SARS-COV-2 RBD-MMH (SARS-CoV-2); test: SPR 37C
[2] = biological target: SARS-COV-2 RBD-MMH (SARS-CoV-2); test: SPR 37C, run with dissociation at pH 5.0
[3] = biological target: SARS-COV-2 RBD-MMH (SARS-CoV-2); test: SPR 37C, run with dissociation at pH 7.4
[4] = biological target: SARS-CoV-2 RBD.mmh (Spike amino acids Arg319-Phe541 with C-terminal myc-myc-6-Histidine tag) (SARS-CoV-2, UniProt P0DTC2 319-541)
[5] = biological target: T1, SARS-COV-2 RBD-MMH (SARS-COV-2 RBD extracellular domain with C-terminal myc-myc-hexahistidine tag) (SARS-CoV-2)
[6] = biological target: T1, SARS-COV-2 RBD-MMH (SARS-COV-2 RBD …); test: SPR 37C, mAb captured, pH 7.4 vs pH 6.0

Row | Binder | t½ Ratio of pH 7.4 to pH 5.0 [1] | RBD.mmh Bound at pH 7.4 (RU) [2] [RU] | koff [2] [s⁻¹] | t½ [2] [min] | RBD.mmh Bound at pH 7.4 (RU) [3] [RU] | koff [3] [s⁻¹] | IC50 [4] [nM] | koff [5] [s⁻¹] | t½ at pH 6.0 [5] [min] | t½ at pH 7.4 [5] [min] | t½ Ratio of pH 7.4 to pH 6.0 [6]
1 | B1 | 2.3 | 104 | 0.0158 | 0.7 | 92.6 | 0.00673 | – | – | – | – | –
2 | B2 | – | – | – | – | – | – | 0.254 | 3.81e-05 | 304 | 103 | 0.3
3 | B3 | 0.1 | 92.6 | 1e-05 | 1160 | 87.8 | 0.000112 | – | – | – | – | –
4 | B4 | – | – | – | – | – | – | 0.641 | 0.00454 | 2.5 | 1.7 | 0.7
5 | B5 | 0.6 | 231 | 0.00439 | 2.6 | 219 | 0.0068 | – | – | – | – | –
6 | B6 | 0.9 | 51.4 | 0.00098 | 11.8 | 39.8 | 0.00113 | – | – | – | – | –
7 | B7 | 1 | 61.3 | 0.00228 | 5.1 | 58.2 | 0.00218 | – | – | – | – | –
8 | B8 | 1.7 | 108 | 0.00702 | 1.6 | 106 | 0.00405 | – | – | – | – | –
9 | B9 | 1.9 | 45.5 | 0.000429 | 27 | 31.9 | 0.000231 | – | – | – | – | –
10 | B10 | 0.6 | 141 | 6.62e-05 | 174 | 120 | 0.000107 | – | – | – | – | –
11 | B11 | 1.8 | 131 | 0.0054 | 2.1 | 116 | 0.003 | – | – | – | – | –
12 | B12 | 0.3 | 122 | 9.7e-05 | 119 | 111 | 0.00031 | – | – | – | – | –
13 | B13 | 0.9 | 159 | 0.002 | 5.8 | 145 | 0.00226 | – | – | – | – | –
14 | B14 | 1.2 | 60 | 0.035 | 0.3 | 65.2 | 0.03 | – | – | – | – | –
15 | B15 | 0.6 | 127 | 0.000973 | 11.9 | 110 | 0.00164 | – | – | – | – | –
16 | B16 | 7.6 | 83.2 | 0.00377 | 3.1 | 81.9 | 0.000494 | – | – | – | – | –
